In series [1] the target is trk A (autophosphorylation assay of Example 5). Briefly: cell-based or functional assay.
The target of series [2] is trk A on trk A-overexpressing PC12 cells. Briefly: cell-based or functional assay.
Series [3] deals with p75 on vascular smooth muscle cell line (p75Ts-Tag-SMC). Briefly: cell-based or functional assay.
A further series concerns the target p75NTR on A875 cells (UniProt P08138). Kind of series: whole-cell competition against 1 nM 125I-NGF on cells expressing only p75 (A875 cells).
The target of the next series is TrkA on 293 cells. Briefly: whole-cell competition against 1 nM 125I-NGF on 293 cells expressing only trk A.
Series [4] relates to T1, rat BDNF secreted by adenovirus-infected 293T or endothelial cells (proforms of 30 kDa and 28 kDa).
T1 sequence: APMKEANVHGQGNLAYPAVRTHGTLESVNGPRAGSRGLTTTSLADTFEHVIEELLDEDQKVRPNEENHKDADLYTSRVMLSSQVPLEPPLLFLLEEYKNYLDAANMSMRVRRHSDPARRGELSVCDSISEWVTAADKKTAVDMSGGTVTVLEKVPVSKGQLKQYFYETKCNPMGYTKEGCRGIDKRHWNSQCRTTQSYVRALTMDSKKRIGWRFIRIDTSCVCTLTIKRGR

Series [5] has as its system His-tagged cleavage resistant pro-NGF (point mutant, K-R cleavage site at 120,121 mutated to A-A).

This note sets out measurements from patent publication US7507799.

Usually IC50 stands for the point on the concentration scale where inhibition reaches its midpoint. Low values mean inhibition by little substance, high ones a need for much substance.

commercial mature NGF (Enzo Products for Science, Farmingdale, N.Y.) (ligand), sequence (P01139 122-241): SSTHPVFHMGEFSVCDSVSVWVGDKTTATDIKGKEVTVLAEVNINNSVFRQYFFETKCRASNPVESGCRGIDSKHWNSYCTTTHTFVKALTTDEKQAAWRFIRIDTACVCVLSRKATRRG
plasmin, sequence (P00747 20-580): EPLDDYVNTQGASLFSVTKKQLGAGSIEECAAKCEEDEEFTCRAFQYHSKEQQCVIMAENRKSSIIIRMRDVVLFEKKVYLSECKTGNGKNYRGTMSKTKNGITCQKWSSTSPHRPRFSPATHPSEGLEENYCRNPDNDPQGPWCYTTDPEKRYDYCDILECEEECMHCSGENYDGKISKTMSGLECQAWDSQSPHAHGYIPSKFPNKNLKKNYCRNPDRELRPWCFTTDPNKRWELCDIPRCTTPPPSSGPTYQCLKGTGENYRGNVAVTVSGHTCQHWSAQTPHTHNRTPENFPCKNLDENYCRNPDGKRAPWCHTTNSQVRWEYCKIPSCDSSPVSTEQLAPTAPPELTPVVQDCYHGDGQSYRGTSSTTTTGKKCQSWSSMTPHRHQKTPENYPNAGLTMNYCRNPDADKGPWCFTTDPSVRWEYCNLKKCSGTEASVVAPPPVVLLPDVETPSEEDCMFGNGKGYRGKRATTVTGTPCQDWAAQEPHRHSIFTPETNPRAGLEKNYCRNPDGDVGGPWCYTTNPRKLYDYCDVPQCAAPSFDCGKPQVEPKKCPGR
plasmin, sequence (P00747 581-810): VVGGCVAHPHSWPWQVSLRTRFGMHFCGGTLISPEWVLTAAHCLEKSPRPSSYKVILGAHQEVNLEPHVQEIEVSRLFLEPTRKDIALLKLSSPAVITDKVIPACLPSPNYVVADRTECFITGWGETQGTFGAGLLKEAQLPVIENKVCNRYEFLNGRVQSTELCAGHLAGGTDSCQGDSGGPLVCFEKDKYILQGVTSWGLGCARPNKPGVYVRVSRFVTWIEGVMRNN
TrkA on 293 cells, sequence (P04629 33-796): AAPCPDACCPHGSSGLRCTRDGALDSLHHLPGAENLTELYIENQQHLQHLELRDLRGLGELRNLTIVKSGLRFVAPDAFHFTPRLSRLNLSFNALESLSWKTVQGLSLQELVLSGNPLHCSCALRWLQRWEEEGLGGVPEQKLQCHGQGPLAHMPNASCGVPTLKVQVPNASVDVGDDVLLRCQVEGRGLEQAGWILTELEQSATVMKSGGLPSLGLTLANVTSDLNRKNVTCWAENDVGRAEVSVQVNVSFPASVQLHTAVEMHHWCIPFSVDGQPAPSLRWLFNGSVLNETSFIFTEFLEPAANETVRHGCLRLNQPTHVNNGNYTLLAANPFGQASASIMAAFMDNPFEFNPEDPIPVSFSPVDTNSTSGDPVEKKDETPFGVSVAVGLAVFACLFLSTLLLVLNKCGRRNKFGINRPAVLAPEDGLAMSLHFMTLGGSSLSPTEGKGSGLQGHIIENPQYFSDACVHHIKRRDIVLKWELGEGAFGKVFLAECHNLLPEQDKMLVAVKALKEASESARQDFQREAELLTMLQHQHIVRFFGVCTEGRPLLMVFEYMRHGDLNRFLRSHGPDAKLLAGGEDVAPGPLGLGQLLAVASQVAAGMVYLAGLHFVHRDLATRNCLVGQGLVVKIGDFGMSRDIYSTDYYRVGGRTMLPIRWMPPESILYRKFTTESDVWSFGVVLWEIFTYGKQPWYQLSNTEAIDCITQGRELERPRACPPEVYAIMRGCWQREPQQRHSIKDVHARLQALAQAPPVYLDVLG
commercial mature NGF (Enzo Products for Science, Farmingdale, N.Y.) (ligand; other documents disagree on this pair), sequence (P01139 122-241): as the sequence (P01139 122-241) above
p75NTR on A875 cells, sequence (P08138 29-427): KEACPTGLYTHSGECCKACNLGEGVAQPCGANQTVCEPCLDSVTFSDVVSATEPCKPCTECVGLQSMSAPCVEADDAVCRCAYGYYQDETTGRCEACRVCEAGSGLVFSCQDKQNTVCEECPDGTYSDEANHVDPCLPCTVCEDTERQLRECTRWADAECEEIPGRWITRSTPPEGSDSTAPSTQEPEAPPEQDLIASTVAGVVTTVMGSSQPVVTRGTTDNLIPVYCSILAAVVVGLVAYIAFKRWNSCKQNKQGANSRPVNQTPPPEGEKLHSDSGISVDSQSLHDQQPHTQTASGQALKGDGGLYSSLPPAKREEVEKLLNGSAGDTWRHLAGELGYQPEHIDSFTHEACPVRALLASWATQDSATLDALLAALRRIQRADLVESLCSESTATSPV

For the substance “His-tagged native NGF, completely processed to the mature form of 13.5 kDa (from UniProt P01139 122-241) (ligand)”, the trk A autophosphorylation in series [1] is 0.2 nM. Further, the PC12 cell neuritogenesis in series [2] turned out to be 0.1 nM.
“commercial mature NGF (Enzo Products for Science, Farmingdale, N.Y.) (ligand)” had a trk A autophosphorylation in series [1] of 0.2 nM. The substance also returned a TUNEL positive cells at 18 h (% TUNEL positive cells at 2 nM) in series [3] of 20. In series [2], this substance showed a PC12 cell neuritogenesis of 0.1 nM. The IC50 with p75NTR on A875 cells is 1 nM.
For “commercial mature NGF (Enzo Products for Science, Farmingdale, N.Y.) (ligand; other documents disagree on this pair)”, the IC50 with TrkA on 293 cells is 1.2 nM.
With plasmin, the “proteolytic cleavage in endothelial media, Western blot” value in series [4] is “In endothelial media, only plasmin and MMP-7 appeared to cleave the large proform”. In series [5], the “proteolytic cleavage, Western blot” value is given as “Pro-NGF was cleaved by plasmin to a 13 kD form”.
